Laboratory results: paper PMC10294715, “Single-cell RNA-seq uncovers dynamic processes orchestrated by RNA-binding protein DDX43 in chromatin remodeling during spermiogenesis”

Molecular target: DDX43-KI (Mus musculus, UniProt D3Z6P9 1-646, E395Q)
Assay: EMSA; EMSA: 10 nM biotin-RNA, 50 mM Tris-HCl pH 7.5, 100 mM KCl, 2.5% glycerol, 0.05% NP-40, 4 mM EDTA, 1 mM DTT, RiboLock 2 U, 37 C 30 min; 8% native TBE PAGE at 4 C; G4 folded in 50 mM Tris-HCl pH 7.5, 150 mM KCl, 0.1 mM EDTA
Conditions: protein: recombinant; tags: His tag (Ni-NTA, pET28a); label: 3' biotin; single strand

DDX43-KI, sequence (D3Z6P9 entry or part of it E395Q): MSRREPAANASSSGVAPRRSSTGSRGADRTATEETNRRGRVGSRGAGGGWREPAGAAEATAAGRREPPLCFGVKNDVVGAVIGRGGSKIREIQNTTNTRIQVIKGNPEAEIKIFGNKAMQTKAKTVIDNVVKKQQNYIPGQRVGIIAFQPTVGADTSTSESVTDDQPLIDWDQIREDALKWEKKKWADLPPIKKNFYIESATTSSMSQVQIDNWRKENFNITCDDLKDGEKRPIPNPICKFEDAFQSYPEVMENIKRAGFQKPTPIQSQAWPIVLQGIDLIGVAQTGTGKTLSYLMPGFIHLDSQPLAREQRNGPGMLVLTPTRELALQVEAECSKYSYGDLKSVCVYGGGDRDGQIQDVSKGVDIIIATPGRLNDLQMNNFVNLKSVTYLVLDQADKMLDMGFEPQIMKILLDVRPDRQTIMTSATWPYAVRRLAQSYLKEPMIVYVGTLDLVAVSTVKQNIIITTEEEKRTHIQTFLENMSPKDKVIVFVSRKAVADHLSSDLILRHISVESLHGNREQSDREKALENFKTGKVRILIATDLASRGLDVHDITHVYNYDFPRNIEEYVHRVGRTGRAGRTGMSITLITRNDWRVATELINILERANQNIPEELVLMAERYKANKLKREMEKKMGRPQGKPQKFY

Binder: ACCGCUGCCGUCGCUCCG (ssRNA) [ssRNA]
- binding result: no binding
